Test results from IntAct's records for PubMed 18060821.

B1: MAPK phosphothreonine lyase (Salmonella enteritidis), P0A2N1 (parent)
chain: MPINRPNLNLNIPPLNIVAAYDGAEIPSTNKHLKNNFNSLHNQMRKMPVSHFKEALDVPDYSGMRQSGFFAMSQGFQLNNHGYDVFIHARRESPQSQGKFAGDKFHISVLRDMVPQAFQALSGLLFSEDSPVDKWKVTDMEKVVQQARVSLGAQFTLYIKPDQENSQYSASFLHKTRQFIECLESRLSENGVISGQCPESDVHPENWKYLSYRNELRSGRDGGEMQRQALREEPFYRLMTE

Variants of: B1
Details: with mk07_human MAPK7, Q13164
mk07_human MAPK7, Q13164, sequence (Q13164 whole entry, looked up): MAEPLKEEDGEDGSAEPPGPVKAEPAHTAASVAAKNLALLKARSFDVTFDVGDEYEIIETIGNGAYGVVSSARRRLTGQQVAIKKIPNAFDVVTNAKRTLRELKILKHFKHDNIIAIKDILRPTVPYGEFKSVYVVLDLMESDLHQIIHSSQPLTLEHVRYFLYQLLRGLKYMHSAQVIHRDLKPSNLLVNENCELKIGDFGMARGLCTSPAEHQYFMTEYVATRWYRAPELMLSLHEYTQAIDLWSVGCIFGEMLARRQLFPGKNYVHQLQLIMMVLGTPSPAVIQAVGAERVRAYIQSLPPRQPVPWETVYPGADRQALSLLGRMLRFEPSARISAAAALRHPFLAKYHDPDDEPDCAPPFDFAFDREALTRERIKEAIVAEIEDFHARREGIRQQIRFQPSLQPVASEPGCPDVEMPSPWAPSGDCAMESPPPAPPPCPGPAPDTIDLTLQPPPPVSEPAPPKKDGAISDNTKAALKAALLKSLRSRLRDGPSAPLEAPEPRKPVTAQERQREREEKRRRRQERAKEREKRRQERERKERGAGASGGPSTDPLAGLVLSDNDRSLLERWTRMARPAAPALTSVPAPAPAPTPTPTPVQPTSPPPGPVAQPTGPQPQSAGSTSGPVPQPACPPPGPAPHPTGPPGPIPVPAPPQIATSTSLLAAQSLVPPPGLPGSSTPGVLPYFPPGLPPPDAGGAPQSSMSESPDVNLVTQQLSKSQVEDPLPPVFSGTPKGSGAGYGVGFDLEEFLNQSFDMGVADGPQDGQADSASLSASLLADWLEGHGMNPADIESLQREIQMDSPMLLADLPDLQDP

| Variant | effect of a mutation on the interaction |
| --- | --- |
| MPINRPNLNLNIPPLNIVAAYDGAEIPSTNKHLKNNFNSLHNQMRKMPVSHFKEALDVPDYSGMRQSGFFAMSQGFQLNNHGYDVFIHARRESPQSQGKFAGDKFHISVLRDMVPQAFQALSGLLFSEDSPVDKWAVTDMEKVVQQARVSLGAQFTLYIKPDQENSQYSASFLHKTRQFIECLESRLSENGVISGQCPESDVHPENWKYLSYRNELRSGRDGGEMQRQALREEPFYRLMTE [K136A] | with no effect |

Variants of: B1
Details: with mk07_human MAPK7, Q13164
Remark: another data set of the same source

| Variant | effect of a mutation on the interaction |
| --- | --- |
| MPINRPNLNLNIPPLNIVAAYDGAEIPSTNKHLKNNFNSLHNQMRKMPVSHFKEALDVPDYSGMRQSGFFAMSQGFQLNNHGYDVFIHARRESPQSQGKFAGDKFHISVLRDMVPQAFQALSGLLFSEDSPVDKWAVTDMEKVVQQARVSLGAQFTLYIKPDQENSQYSASFLHKTRQFIECLESRLSENGVISGQCPESDVHPENWKYLSYRNELRSGRDGGEMQRQALREEPFYRLMTE [K136A] | causing an interaction |
| MPINRPNLNLNIPPLNIVAAYDGAEIPSTNKHLKNNFNSLHNQMRKMPVSHFKEALDVPDYSGMRQSGFFAMSQGFQLNNHGYDVFIHARRESPQSQGKFAGDKFAISVLRDMVPQAFQALSGLLFSEDSPVDKWAVTDMEKVVQQARVSLGAQFTLYIKPDQENSQYSASFLHKTRQFIECLESRLSENGVISGQCPESDVHPENWKYLSYRNELRSGRDGGEMQRQALREEPFYRLMTE [H106A;K136A] | disrupting interaction |
